From paper PMC8922275, “DNA-Dependent Binding of Nargenicin to DnaE1 Inhibits Replication in Mycobacterium tuberculosis” (ACS Infectious Diseases, 2022)

Columns and labels:
DnaE = DnaE (Staphylococcus aureus, UniProt Q5HF71); assay: real-time fluorescence-quench DNA polymerase assay (text […]; Figure […] legend […]); assay type: biochemical
[1] = molecular target: T1, DNA polymerase III α (Pol IIIα) (Escherichia coli, UniProt P10443); assay: real-time fluorescence-quench DNA polymerase assay; assay type: biochemical
T1 construct: gene dnaE

DnaE1 = molecular target: T2, DnaE1 (Mycobacterium tuberculosis, UniProt P9WNT7); assay: ([…] Å) with DNA; […]; assay type: biochemical
T2 construct: full-length
T2 sequence (P9WNT7 1-1184): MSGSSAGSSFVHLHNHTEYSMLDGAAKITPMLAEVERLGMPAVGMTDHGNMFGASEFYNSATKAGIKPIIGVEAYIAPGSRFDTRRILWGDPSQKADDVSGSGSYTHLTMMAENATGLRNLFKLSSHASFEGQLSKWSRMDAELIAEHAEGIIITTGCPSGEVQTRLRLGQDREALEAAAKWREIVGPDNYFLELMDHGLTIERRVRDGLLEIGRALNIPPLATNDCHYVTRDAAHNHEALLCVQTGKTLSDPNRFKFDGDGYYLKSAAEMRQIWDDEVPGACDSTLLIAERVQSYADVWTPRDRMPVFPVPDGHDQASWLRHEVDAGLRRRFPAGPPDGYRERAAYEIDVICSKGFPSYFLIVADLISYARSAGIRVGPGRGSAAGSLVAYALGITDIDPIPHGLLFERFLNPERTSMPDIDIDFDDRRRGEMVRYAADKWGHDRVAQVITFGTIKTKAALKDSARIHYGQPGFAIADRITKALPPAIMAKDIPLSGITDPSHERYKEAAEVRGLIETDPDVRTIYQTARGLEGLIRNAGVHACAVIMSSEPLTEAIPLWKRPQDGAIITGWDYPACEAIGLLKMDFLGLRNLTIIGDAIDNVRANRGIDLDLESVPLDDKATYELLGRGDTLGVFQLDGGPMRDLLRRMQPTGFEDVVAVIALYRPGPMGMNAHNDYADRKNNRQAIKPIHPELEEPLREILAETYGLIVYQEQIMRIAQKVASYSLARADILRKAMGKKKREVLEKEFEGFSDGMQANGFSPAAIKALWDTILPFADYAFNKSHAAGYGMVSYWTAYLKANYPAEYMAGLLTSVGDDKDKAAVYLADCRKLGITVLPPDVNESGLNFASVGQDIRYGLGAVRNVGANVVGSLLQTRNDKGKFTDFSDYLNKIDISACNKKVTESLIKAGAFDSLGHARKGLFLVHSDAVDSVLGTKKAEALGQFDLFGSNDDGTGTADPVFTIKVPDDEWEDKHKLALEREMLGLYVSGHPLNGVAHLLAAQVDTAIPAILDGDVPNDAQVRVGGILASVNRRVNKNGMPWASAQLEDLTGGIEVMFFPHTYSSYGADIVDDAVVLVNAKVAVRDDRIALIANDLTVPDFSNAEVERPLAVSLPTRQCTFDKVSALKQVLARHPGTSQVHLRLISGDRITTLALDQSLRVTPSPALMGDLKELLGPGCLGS

DnaE S765L = DnaE S765L (Staphylococcus aureus, UniProt Q9F1K0 1-1065, S765L); assay: fluorescence anisotropy; Anisotropy: 5 nM DNA, 25 mM HEPES pH 7.5, 50 mM potassium glutamate, 2 mM DTT, 0.5 mg/mL BSA, 24 °C. Cryo-EM: 20 mM PIPES pH 7.0, 50 mM potassium glutamate, 5 mM MgCl2, 2 mM DTT, 0.01% Tween-20; conditions: protein: recombinant; label: 5'-Cy3 on primer (strand 1); 24 bp duplex, 5' overhang 30 nt on template
[2] = molecular target: Pol IIIα (replicative DNA polymerase) (Escherichia coli, UniProt P10443 1-1160); assay: as above; conditions: protein: recombinant; label: 5'-Cy3 on primer (strand 1); 24 bp duplex, 5' overhang 30 nt on template
[3] = molecular target: T3, DnaE (replicative DNA polymerase) (Staphylococcus aureus, UniProt Q9F1K0 1-1065); assay: as above; conditions: protein: recombinant; label: 5'-Cy3 on primer (strand 1); 24 bp duplex, 5' overhang 30 nt on template
T3 sequence: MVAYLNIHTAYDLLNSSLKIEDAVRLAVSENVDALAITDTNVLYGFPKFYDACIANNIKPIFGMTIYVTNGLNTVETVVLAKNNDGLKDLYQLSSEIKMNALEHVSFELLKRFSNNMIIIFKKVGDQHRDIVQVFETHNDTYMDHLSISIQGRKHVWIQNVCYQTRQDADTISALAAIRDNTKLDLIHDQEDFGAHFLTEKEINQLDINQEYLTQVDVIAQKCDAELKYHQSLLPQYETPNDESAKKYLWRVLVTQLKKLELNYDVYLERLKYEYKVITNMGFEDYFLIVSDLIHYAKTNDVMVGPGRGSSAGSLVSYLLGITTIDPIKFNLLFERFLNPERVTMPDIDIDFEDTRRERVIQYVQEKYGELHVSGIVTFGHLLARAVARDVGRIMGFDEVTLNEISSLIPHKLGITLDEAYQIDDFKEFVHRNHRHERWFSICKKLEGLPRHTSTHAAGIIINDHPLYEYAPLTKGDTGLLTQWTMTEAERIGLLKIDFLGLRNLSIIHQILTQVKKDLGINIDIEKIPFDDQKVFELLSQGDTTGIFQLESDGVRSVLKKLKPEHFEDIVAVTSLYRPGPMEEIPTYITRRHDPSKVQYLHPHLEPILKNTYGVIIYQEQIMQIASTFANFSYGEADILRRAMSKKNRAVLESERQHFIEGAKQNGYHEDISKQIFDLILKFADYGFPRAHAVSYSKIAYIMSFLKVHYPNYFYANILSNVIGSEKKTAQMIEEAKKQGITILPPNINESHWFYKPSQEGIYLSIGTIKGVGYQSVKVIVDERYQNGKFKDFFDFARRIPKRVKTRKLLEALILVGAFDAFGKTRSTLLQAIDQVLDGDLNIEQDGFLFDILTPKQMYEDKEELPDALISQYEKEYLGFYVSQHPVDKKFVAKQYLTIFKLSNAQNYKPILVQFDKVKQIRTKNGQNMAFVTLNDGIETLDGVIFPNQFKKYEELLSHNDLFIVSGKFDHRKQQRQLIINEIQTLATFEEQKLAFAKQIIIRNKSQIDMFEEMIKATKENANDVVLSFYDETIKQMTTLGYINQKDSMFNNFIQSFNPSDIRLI

[4] = molecular target: T4, DnaE1 (replicative DNA polymerase) (Mycobacterium tuberculosis, UniProt P9WNT7 1-1184); assay: fluorescence anisotropy; conditions: protein: recombinant; label: 5'-Cy3 on primer (strand 1); 24 bp duplex, 5' overhang 30 nt on template
T4 sequence: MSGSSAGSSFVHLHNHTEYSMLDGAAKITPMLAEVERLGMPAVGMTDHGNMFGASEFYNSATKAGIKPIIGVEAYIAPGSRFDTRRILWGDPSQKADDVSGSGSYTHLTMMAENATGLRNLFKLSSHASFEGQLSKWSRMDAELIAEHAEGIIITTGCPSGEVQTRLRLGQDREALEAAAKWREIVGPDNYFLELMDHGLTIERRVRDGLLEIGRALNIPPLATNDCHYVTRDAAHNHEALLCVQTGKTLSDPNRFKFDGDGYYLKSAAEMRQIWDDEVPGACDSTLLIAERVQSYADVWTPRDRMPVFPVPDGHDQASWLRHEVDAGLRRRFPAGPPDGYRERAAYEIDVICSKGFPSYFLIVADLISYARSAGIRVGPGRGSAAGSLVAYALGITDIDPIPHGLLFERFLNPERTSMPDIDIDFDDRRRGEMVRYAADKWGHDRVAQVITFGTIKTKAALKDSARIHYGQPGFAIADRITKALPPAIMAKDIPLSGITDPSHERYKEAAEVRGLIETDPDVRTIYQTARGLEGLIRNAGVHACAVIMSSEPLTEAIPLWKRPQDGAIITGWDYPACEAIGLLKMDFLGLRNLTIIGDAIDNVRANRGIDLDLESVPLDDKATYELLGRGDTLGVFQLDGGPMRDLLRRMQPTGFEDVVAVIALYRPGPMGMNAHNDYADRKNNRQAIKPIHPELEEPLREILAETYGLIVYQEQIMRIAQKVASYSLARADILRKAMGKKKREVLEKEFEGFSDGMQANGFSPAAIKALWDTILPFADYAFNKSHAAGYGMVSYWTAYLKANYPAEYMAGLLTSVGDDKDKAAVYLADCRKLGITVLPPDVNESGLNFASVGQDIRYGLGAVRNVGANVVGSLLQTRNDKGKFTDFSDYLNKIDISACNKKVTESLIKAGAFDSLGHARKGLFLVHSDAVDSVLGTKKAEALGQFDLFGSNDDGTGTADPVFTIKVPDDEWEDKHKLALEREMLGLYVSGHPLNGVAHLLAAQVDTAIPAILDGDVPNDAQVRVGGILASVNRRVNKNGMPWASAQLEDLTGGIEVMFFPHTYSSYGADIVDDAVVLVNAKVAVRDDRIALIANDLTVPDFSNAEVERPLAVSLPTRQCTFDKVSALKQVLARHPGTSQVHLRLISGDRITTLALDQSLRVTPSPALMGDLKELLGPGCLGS

[5] = molecular target: T4, DnaE1 (replicative DNA polymerase); assay: cryo-EM structure (2.9 Å); 10 uM nargenicin, 5 mM MgCl2; conditions: protein: recombinant

T1 sequence (P10443 whole entry): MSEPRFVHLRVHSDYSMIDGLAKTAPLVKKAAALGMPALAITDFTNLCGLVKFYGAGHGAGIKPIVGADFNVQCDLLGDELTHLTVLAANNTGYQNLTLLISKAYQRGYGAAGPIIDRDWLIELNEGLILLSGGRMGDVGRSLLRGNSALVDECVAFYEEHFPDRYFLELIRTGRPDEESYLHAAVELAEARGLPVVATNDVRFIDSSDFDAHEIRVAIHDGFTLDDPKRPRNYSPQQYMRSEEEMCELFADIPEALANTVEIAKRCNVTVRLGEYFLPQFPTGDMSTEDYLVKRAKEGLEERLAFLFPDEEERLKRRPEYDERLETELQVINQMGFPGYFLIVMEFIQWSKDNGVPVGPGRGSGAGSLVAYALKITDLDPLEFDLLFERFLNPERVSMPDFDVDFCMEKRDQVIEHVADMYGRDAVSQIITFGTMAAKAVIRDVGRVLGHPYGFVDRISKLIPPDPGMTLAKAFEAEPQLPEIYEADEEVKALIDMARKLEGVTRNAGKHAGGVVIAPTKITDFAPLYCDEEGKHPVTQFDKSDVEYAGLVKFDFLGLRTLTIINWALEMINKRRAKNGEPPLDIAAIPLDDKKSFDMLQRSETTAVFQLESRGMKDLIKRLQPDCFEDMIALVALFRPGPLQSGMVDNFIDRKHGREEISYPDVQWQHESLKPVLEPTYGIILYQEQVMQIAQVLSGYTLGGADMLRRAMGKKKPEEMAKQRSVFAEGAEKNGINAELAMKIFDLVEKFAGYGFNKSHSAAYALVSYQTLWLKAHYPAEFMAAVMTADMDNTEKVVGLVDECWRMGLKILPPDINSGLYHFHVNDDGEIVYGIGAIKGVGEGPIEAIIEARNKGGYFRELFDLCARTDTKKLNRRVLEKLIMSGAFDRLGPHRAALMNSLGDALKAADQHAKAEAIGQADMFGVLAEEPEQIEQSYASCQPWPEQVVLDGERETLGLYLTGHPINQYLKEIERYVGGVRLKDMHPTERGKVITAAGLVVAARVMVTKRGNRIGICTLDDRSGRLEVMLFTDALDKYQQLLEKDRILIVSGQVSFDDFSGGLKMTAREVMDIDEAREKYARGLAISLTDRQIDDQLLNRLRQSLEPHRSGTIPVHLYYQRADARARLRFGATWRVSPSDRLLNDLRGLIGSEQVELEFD

COC1CC2C=CC3C4OC2(/C(C)=C/C(C)C(C(C)O)OC1=O)C3C(O)C(C)C4OC(=O)c1ccc[nH]1 (centres unmarked) [nargenicin]
IC50 (DnaE): 6 nM
IC50 [1]: 13000 nM
IC50 (DnaE1): 125 nM

B1: primed DNA substrate (anisotropy) (dsDNA)
DNA 1: GGTAACGCCAGGGTTTTCCCAGTC
DNA 2: CGCTCACTGGCCGTCGTTTTACAACGTCGTGACTGGGAAAACCCTGGCGTTACC
Kd (DnaE S765L): 85 nM
Kd [2]: 12000 nM
Kd [3]: 6 nM
Kd [4]: 250 nM

B2: cryo-EM primer/template substrate (dsDNA)
DNA 1: GCACCTAAAGTTGGGAGTCCTTCGTCCTT
DNA 2: GATAGAGCAGAAGGACGAAGGACTCCCAACTTTAGGTG
modifications: phosphorothioate bond between the last two nt of the primer (T*T)
binding result [5]: binds
